These results are taken from the RNAGym collection of RNA variant scans (doi:10.7554/elife.90254).

To fix the notation:
B1: OR4K15 (parent)
chain: GUUAACGGUCAUAGGCCAUGGAAACUAGGAGCACCAUUUCGCUGCCAGUGAAGAAAUGAACAAAGAAAAUCUGGGCCAGGCAGGCAUCAAAAGAAAUAGUCUUGCGCUCAACCAGAAAGUCUGUAAUCAUUUUAAGGGUA

This data set covers variants of B1. As to the kind of experiment: self-cleavage, relative activity (ratio to wild type); higher = more cleavage; in vitro, sequencing; the parent is a self-cleaving ribozyme.
In the case of U2C A60G, the self-cleavage was found to be 1.02. For the variant A24G A86C, the self-cleavage worked out at 0.43. As for U57C U87C, the self-cleavage was found to be 0.63. On to A62G U130C, for which the self-cleavage stood at 1.15.

For U39C A52G, the self-cleavage is 1.76. With U43C A114U, the self-cleavage turned out to be 0.05. As to G41U A89G, the self-cleavage was 2.13. For A36G U49A, the self-cleavage was 1.26. The value for A30C A111G was 0.07. With A13G U108G, the self-cleavage stood at 0. As for U9A A22G, the self-cleavage turned out to be 1.7.

As for A86G A110G, the self-cleavage is 0.16.

With A30U U38C, the self-cleavage amounted to 1.69. For A47U U102G, the self-cleavage amounted to 0.28. The value for G79A A110U was 0.24; that for A4G A52U was 0.92.

U38C A62G: the self-cleavage amounted to 1.37. As for U19C U132C, the figure is 1.24; as for A11C U122C, 1.46.

In the case of A56G U139C, the self-cleavage is 0.78.

As to A60G G106A, the self-cleavage was determined as 0.02. Consider A47C G74A, for which the self-cleavage worked out at 0.17. In the case of U2C A117U, the self-cleavage came to 1.05. Take A22G U97G: the self-cleavage worked out at 1.42. With U9A A111U, the self-cleavage was 0.19. For the variant A5G G21A, the self-cleavage stood at 1.23. Turning to A5C A36U, the self-cleavage was 1.59. As for A13U U102C, the figure is 1.56; as for U72G A95U, 0.12. As for A56G A67G, the self-cleavage was 0.97. Take A18U A24U: the self-cleavage was 1.36.

For A82U A94U, the self-cleavage stood at 0.21. Turning to A27G A66G, the self-cleavage was 0.7. The value for A54C U72A was 0.43; that for A56C A69G was 1.24; that for G44A U97C was 0.83. As for A18G A22G, the self-cleavage amounted to 1.01. For the variant A13U A94G, the self-cleavage was 0.55.

For U37C A96G, the self-cleavage worked out at 1.36. The value for A64U A91G was 1.04; that for U43C A54G was 1.4; that for A60C A96G was 1.77. In the case of C61U U87C, the self-cleavage amounted to 1.35.

As to G29A A125G, the self-cleavage is 0.24.

For U103C G136U, the self-cleavage amounted to 1.12. The value for A36U A91C was 1.76.

In the case of U70A A78G, the self-cleavage was found to be 0.33.

In the case of U9A A91G, the self-cleavage came to 0.37. For the variant A30U U72C, the self-cleavage was determined as 0.27.

With A18C A60G, the self-cleavage came to 2.54. In the case of A92G A116U, the self-cleavage stood at 0.2. For the variant A33U U49G, the self-cleavage was found to be 2.25.

U72C U132C: the self-cleavage came to 0.3. The value for A52G A96G was 1.64. As for U87A A134G, the self-cleavage was found to be 2.21. In the case of A90U A111U, the self-cleavage is 0.11. G21U A22G: the self-cleavage was 1.71. Regarding A33G A135U, the self-cleavage was determined as 0.95. In the case of U130C U131C, the self-cleavage is 1.01.

With C16U U122C, the self-cleavage was 1.91. A33U A82G: the self-cleavage was 0.88. In the case of U103C U122A, the self-cleavage amounted to 1.14. For U9C A18U, the self-cleavage turned out to be 1.36.

Consider U39A, for which the self-cleavage stood at 1.35. U39C C101U: the self-cleavage was 0.46.

In the case of A95G U127C, the self-cleavage was 1.56. Regarding A62G A82G, the self-cleavage amounted to 0.49. For the variant A11U A114U, the self-cleavage was 0.05. As for A86U C101A, the figure is 0.09. As for C40A A117G, the self-cleavage was 2.53. Consider G80A A86U, for which the self-cleavage came to 0.24.

With G7A A59G, the self-cleavage turned out to be 1.46.

For the variant U49G U139A, the self-cleavage is 1.7. On to A18G G80U, for which the self-cleavage is 0.14.

Regarding G14A A95G, the self-cleavage came to 1.24. As for A64C A68G, the self-cleavage was found to be 1.44. As for U19C A117U, the figure is 0.58.

Regarding C6G U100C, the self-cleavage came out at 0.97. A27U U39A: the self-cleavage turned out to be 1.49. Turning to A30G C112U, the self-cleavage came to 0.04.

Turning to U124C A140G, the self-cleavage was 0.57. On to A82G A118C, for which the self-cleavage is 0.28. On to A18U G58A, for which the self-cleavage came to 1.09. Turning to A64C U70C, the self-cleavage turned out to be 1.18. As for A11U U122C, the figure is 0.19; as for C6U A47U, 0.51; as for A60G A117G, 1.55. With A24G A64G, the self-cleavage turned out to be 1.01. The value for A11U A51U was 0.87. As for A11U A51C, the figure is 1.16; as for A78G A114G, 0.05. For U12A A92G, the self-cleavage came out at 1.37. With A69G A94U, the self-cleavage was found to be 1.45. As for G41A U70C, the self-cleavage turned out to be 1.12.

As for A11G C71A, the self-cleavage stood at 0.71. On to A11G U87A, for which the self-cleavage was 1.05.

As for A30C A33G, the self-cleavage worked out at 1.9. As for G73U A118G, the figure is 0.02. With U49C U139A, the self-cleavage stood at 1.15.

For the variant G7A A56G, the self-cleavage came out at 1.78. Take C109U A126G: the self-cleavage is 0.14. As for U97A A116G, the figure is 1.19; as for A30G U38C, 1.62; as for C85U U122C, 0.9. Take A13U U130C: the self-cleavage stood at 0.69. As to A13U A64G, the self-cleavage amounted to 1.04.

Regarding A64G A89C, the self-cleavage stood at 0.64. The value for A18G A51G was 1.86; that for U26C A110G was 0.08. For the variant A33C G50U, the self-cleavage came to 1.41.

Consider A47U A95G, for which the self-cleavage is 1.25. A117G A118U: the self-cleavage stood at 1.72. Consider A36U A68G, for which the self-cleavage was determined as 1.62. Take C61U A91U: the self-cleavage was determined as 1.73.

For the variant U97C A126G, the self-cleavage is 1.22. For the variant A59U A91U, the self-cleavage is 1.44. The value for C16G G83A was 1.21. For the variant A5U U49A, the self-cleavage worked out at 1.79. The value for A62G C76G was 0.06. As for G104A A140G, the self-cleavage is 0.09.

U26C G136A: the self-cleavage worked out at 2.02. Regarding A23C G83A, the self-cleavage worked out at 2.28. The value for U72C A140G was 0.34; that for A86G A111G was 0.02; that for U70C A129U was 0.41. As for C42U U127C, the self-cleavage is 0.99. For the variant A11G A68G, the self-cleavage was found to be 1.13.

With G44A A134U, the self-cleavage is 0.73. Take A5U A116U: the self-cleavage is 0.35. In the case of A69G G83A, the self-cleavage is 2.11.

Turning to U37C A78C, the self-cleavage amounted to 0.64. As to U38C U43C, the self-cleavage came out at 1.59. Consider U87C U120C, for which the self-cleavage is 0.21.

In the case of A4G G65C, the self-cleavage was 1.18.

In the case of A30U A91G, the self-cleavage was found to be 1.35. Take U108C A118U: the self-cleavage was 0. With A22G A129U, the self-cleavage worked out at 0.78. As to A18C U131C, the self-cleavage was 0.73.

Turning to U2C A63G, the self-cleavage was determined as 1.12.

In the case of A5C A47G, the self-cleavage was 1.1.

A82G C121U: the self-cleavage amounted to 0.91. As for A86U A140G, the figure is 1.62; as for U26C A116G, 1.14.

With U37G U131C, the self-cleavage was 1.37.

For the variant A52G C71G, the self-cleavage amounted to 0.39. On to U103A A118G, for which the self-cleavage stood at 0.41.

Consider U9A G15C, for which the self-cleavage worked out at 0.57.

In the case of U43G A51U, the self-cleavage came to 2.16.

Consider A114U A118U, for which the self-cleavage came to 0.02.

Take A89U A98U: the self-cleavage is 1.41. As for U37A A96U, the self-cleavage stood at 1.83. Turning to G75A, the self-cleavage turned out to be 0.11. As to U12A A51G, the self-cleavage is 0.95.

Regarding U102C U130C, the self-cleavage is 1.64. As to G65A A116G, the self-cleavage stood at 0.45. On to U2A A91G, for which the self-cleavage was 0.7. On to C46U A67U, for which the self-cleavage came out at 2.2. In the case of G41A A111G, the self-cleavage amounted to 0.02. In the case of C40A A111G, the self-cleavage was 0.02. As to A111U U124C, the self-cleavage is 0.08. With A68G A126U, the self-cleavage is 0.66. As for C45G A51G, the figure is 1.57; as for G83A A118G, 1.41; as for A64G A111G, 0.05. Take G137C A140U: the self-cleavage is 1.65. In the case of C40U U131C, the self-cleavage worked out at 1.93. Take A11G A66G: the self-cleavage is 0.88.
